Experimental data: US9833497B2, “Human originated EGF domain proteins and use of the same” (CHENGDU SOURCEBIO LIMITED-LIABILITY COMPANY, priority 2013, dated 2017)

B1: PRT588 (protein, listed as Homo sapiens)
chain: CDCNGHSETCHFDPAVFAASQGAYGGVCDNCRDHTEGKNCERCQLHYFRNRRPGASIQETCIS
B2: PRT863 (protein, listed as Homo sapiens)
chain: CFCNGHADQCIPVHGFRPVKAPGTFHMVHGKCMCKHNTAGSHCQHCAPLYNDRPWEAADGKTGAPNECRT
B3: PRT593 (protein, listed as Homo sapiens)
chain: CFCNGHASECRPMQKMRGDVFSPPGMVHGQCVCQHNTDGPNCERCKDFFQDAPWRPAADLQDNACRS
B4: PRT864 (protein, listed as Homo sapiens)
chain: CKCNGHADTCHFDVNVWEASGNRSGGVCDDCQHNTEGQYCQRCKPGFYRDLRRPFSAPDACKP
B5: PRT845 (protein, listed as Homo sapiens)
chain: CQCNGHADTCNEQDGTGCPCQNNTETGTCQGSSPSDRRDCYKYQCAKCRESFHGSPLGGQQCYR
B6: PRT598 (protein, listed as Homo sapiens)
chain: CSCNSHSSRCHFDMTTYLASGGLSGGVCEDCQHNTEGQHCDRCRPLFYRDPLKTISDPYACIP

Legend:
Type in all cases: cell-based
Citrobacter diversus = experiment: MIC against Gram-negative bacteria: Citrobacter diversus; details: 5×10^5 CFU/mL; for MIC (μg/mL) C. diversus: 10 h cultivation at 37° C.
Procedure: (§1) 1. Gram-negative bacteria, such as E. coli BL21, Pseudomonas aeruginosa, Klebsiella pneumonia, Enterobacter cloacae, Aeromonas hydrophila, Citrobacter diversus, Moraxella catarrhalis, Proteus mirabilis, Proteus vulgaris, Serratia marcescens, etc were streaked on solid LB medium and cultured respectively. Then, typical clones were picked, inoculated into common liquid LB medium respectively, and cultured at 37° C. with shaking at 185 rpm until the McFarland specific turbidity was 0.5. The bacterial culture of each of Gram-negative bacteria was centrifuged at 4000×g for 3 min, the supernatant was discarded, and the thalli were resuspended with fresh LB medium.
(§2) 2. The above-mentioned bacterial suspensions were diluted and inoculated into 96-well plates with the final concentration of the bacterial suspension being 5×10^5 CFU/mL per well.
(§3) 3. Each of the purified human-originated EGF domain proteins (PRT1 to PRT1498 in Table 1) was added to each of the above wells and subjected to two-fold serial dilution in concentration. Three parallel wells were set up for each concentration in the gradient.
(§4) 4. The above-mentioned 96-well plates were placed and cultured at 37° C. in shaking incubator shaking at 175 rpm. […] The minimal inhibitory concentration MIC is defined as the lowest concentration of the recombinant protein at which there is no growth of the bacteria.

Klebsiella pneumonia = experiment: MIC against Gram-negative bacteria: Klebsiella pneumonia; details: 5×10^5 CFU/mL; for MIC (μg/mL) K. pneumonia: 10 h cultivation at 37° C.
Procedure: as §1, §2, §3, §4

Enterobacter cloacae = experiment: MIC against Gram-negative bacteria: Enterobacter cloacae; details: 5×10^5 CFU/mL; for MIC (μg/mL) E. cloacae: 10 h cultivation at 37° C.
Procedure: as §1, §2, §3, §4

Moraxella catarrhalis = experiment: MIC against Gram-negative bacteria: Moraxella catarrhalis; details: 5×10^5 CFU/mL; for MIC (μg/mL) M. catarrhalis: 10 h cultivation at 37° C.
Procedure: as §1, §2, §3, §4

E. coli DH5α = experiment: Antibacterial activity: MIC and growth curve against E. coli DH5α in 96-well plate; details: minimal inhibitory concentration against E. coli DH5α; 96-well plate, 5×10^5 CFU/mL, 37° C., judged after 8 h
Procedure: 1. E. coli DH5α was exemplified. E. coli DH5α was streaked and cultured on LB solid medium. Then, a typical clone was picked and inoculated into common LB liquid medium, cultured at 37° C. with shaking at 185 rpm until the logarithmic growth phase was reached (OD600 of about 0.5). The bacterial culture was centrifuged at 4000×g for 3 min, the supernatant was discarded, and the thalli were resuspended with fresh LB medium.
2. The above-mentioned bacterial suspension was diluted and inoculated into a 96-well plate with the total volume of 100 μL per well and a bacterial count of 5×10^5 CFU/mL.
3. The recombinant protein hF VII-EGF1 was added to the above-mentioned wells with the final protein concentration in the well of the highest protein concentration being 50 μg/mL. Basing on this final concentration, a two-fold serial dilution was performed till a protein concentration gradient consisting of 50, 25, and 12.5 μg/mL was set up. Three parallel wells were set up for each concentration in the gradient.
4. The above-mentioned 96-well plate was placed and cultured at 37° C. in shaking incubator shaking at 175 rpm. Samples were taken every 30 min, the absorbance values were determined at 600 nm wavelength under a ultra violet spectrophotometer, and an inhibition curve was plotted. […] The minimal inhibitory concentration MIC is defined as the lowest concentration of the recombinant protein at which there is no growth of the bacteria.
According to the experimental procedures in Example 14, the minimal inhibitory concentrations (MIC, μg/mL) of the other human-originated EGF domain proteins (PRT2 to PRT1498 in Table 1) for E. coli DH5α were determined.

Proteus mirabilis = experiment: MIC against Gram-negative bacteria: Proteus mirabilis; details: 5×10^5 CFU/mL; for MIC (μg/mL) P. mirabilis: 10 h cultivation at 37° C.
Procedure: as §1, §2, §3, §4

Proteus vulgaris = experiment: MIC against Gram-negative bacteria: Proteus vulgaris; details: 5×10^5 CFU/mL; for MIC (μg/mL) P. vulgaris: 10 h cultivation at 37° C.
Procedure: as §1, §2, §3, §4

Aeromonas hydrophila = experiment: MIC against Gram-negative bacteria: Aeromonas hydrophila; details: 5×10^5 CFU/mL; for MIC (μg/mL) A. hydrophila: 10 h cultivation at 37° C.
Procedure: as §1, §2, §3, §4

E. coli BL21 = experiment: MIC against Gram-negative bacteria: E. coli BL21; details: 5×10^5 CFU/mL; for MIC (μg/mL) E. coli BL21: 10 h cultivation at 37° C.
Procedure: as §1, §2, §3, §4

Pseudomonas aeruginosa = experiment: MIC against Gram-negative bacteria: Pseudomonas aeruginosa; details: 5×10^5 CFU/mL; for MIC (μg/mL) P. aeruginosa: 10 h cultivation at 37° C.
Procedure: as §1, §2, §3, §4

Serratia marcescens = experiment: MIC against Gram-negative bacteria: Serratia marcescens; details: 5×10^5 CFU/mL; for MIC (μg/mL) S. marcescens: 10 h cultivation at 37° C.
Procedure: as §1, §2, §3, §4

Molecule | MIC against C. diversus (Citrobacter diversus; 96-well plate, 37° C., 10 h) [µg/mL] | MIC against K. pneumonia (Klebsiella pneumonia; 96-well plate, 37° C., 10 h) [µg/mL] | MIC against E. cloacae (Enterobacter cloacae; 96-well plate, 37° C., 10 h) [µg/mL] | MIC against M. catarrhalis (Moraxella catarrhalis; 96-well plate, 37° C., 10 h) [µg/mL] | MIC (E. coli DH5α) [µg/mL] | MIC against P. mirabilis (Proteus mirabilis; 96-well plate, 37° C., 10 h) [µg/mL] | MIC against P. vulgaris (Proteus vulgaris; 96-well plate, 37° C., 10 h) [µg/mL] | MIC against A. hydrophila (Aeromonas hydrophila; 96-well plate, 37° C., 10 h) [µg/mL] | MIC against E. coli BL21 (E. coli BL21; 96-well plate, 37° C., 10 h) [µg/mL] | MIC against P. aeruginosa (Pseudomonas aeruginosa; 96-well plate, 37° C., 10 h) [µg/mL] | MIC (μg/mL) C. diversus (Citrobacter diversus) [µg/mL] | MIC (μg/mL) K. pneumonia (Klebsiella pneumonia) [µg/mL] | MIC (μg/mL) E. cloacae (Enterobacter cloacae) [µg/mL] | MIC (μg/mL) M. catarrhalis (Moraxella catarrhalis) [µg/mL] | MIC (μg/mL) P. mirabilis (Proteus mirabilis) [µg/mL] | MIC (μg/mL) P. vulgaris (Proteus vulgaris) [µg/mL] | MIC (μg/mL) A. hydrophila (Aeromonas hydrophila) [µg/mL] | MIC (μg/mL) E. coli BL21 (E. coli BL21) [µg/mL] | MIC (μg/mL) P. aeruginosa (Pseudomonas aeruginosa) [µg/mL] | MIC (μg/mL) S. marcescens (Serratia marcescens) [µg/mL] | further results
B1 | 12.5 | 25 | 12.5 | 25 | 12.5 | 12.5 | 25 | 25 | 25 | 50 | – | – | – | – | – | – | – | – | – | – | MIC against S. marcescens (Serratia marcescens; 96-well plate, 37° C., 10 h): 12.5 µg/mL
B2 | – | – | – | – | 50 | – | – | – | – | – | 12.5 | 50 | 12.5 | 12.5 | 12.5 | 25 | 12.5 | 12.5 | 25 | 12.5 | –
B3 | 25 | 12.5 | 25 | 12.5 | 25 | 25 | 50 | 50 | 50 | 25 | – | – | – | – | – | – | – | – | – | – | MIC against S. marcescens (Serratia marcescens; 96-well plate, 37° C., 10 h): 25 µg/mL
B4 | – | – | – | – | 12.5 | – | – | – | – | – | 12.5 | 25 | 50 | 25 | 50 | 12.5 | 25 | 12.5 | 12.5 | 50 | –
B5 | – | – | – | – | 25 | – | – | – | – | – | 12.5 | 25 | 12.5 | 25 | 12.5 | 12.5 | 25 | 12.5 | 25 | 50 | –
B6 | – | – | – | – | 25 | – | – | – | – | – | – | – | – | – | – | – | – | – | – | – | MIC C. diversus (Citrobacter diversus; 96-well plate, 37° C., 10 h): 50 µg/mL; MIC K. pneumonia (Klebsiella pneumonia; 96-well plate, 37° C., 10 h): 50 µg/mL; MIC E. cloacae (Enterobacter cloacae; 96-well plate, 37° C., 10 h): 12.5 µg/mL; MIC M. catarrhalis (Moraxella catarrhalis; 96-well plate, 37° C., 10 h): 25 µg/mL; MIC P. mirabilis (Proteus mirabilis; 96-well plate, 37° C., 10 h): 12.5 µg/mL; MIC P. vulgaris (Proteus vulgaris; 96-well plate, 37° C., 10 h): 50 µg/mL; MIC A. hydrophila (Aeromonas hydrophila; 96-well plate, 37° C., 10 h): 25 µg/mL; MIC E. coli BL21 (E. coli BL21; 96-well plate, 37° C., 10 h): 50 µg/mL; MIC P. aeruginosa (Pseudomonas aeruginosa; 96-well plate, 37° C., 10 h): 12.5 µg/mL; MIC S. marcescens (Serratia marcescens; 96-well plate, 37° C., 10 h): 25 µg/mL
